{"source": "paper PMC5717350", "about": "“The human CTF4-orthologue AND-1 interacts with DNA polymerase α/primase via its unique C-terminal HMG box” (Open Biology, 2017)", "binders": {"B1": {"name": "AND-1 SepB (336–826) (domain or fragment, human, UniProt O75717 336-826, looked up)", "chain": "GDFLNDNAVEIPSFSKGIINDDEDDEDLMMASGRPRQRSHILEDDENSVDISMLKTGSSLLKEEEEDGQEGSIHNLPLVTSQRPFYDGPMPTPRQKPFQSGSTPLHLTHRFMVWNSIGIIRCYNDEQDNAIDVEFHDTSIHHATHLSNTLNYTIADLSHEAILLACESTDELASKLHCLHFSSWDSSKEWIIDLPQNEDIEAICLGQGWAAAATSALLLRLFTIGGVQKEVFSLAGPVVSMAGHGEQLFIVYHRGTGFDGDQCLGVQLLELGKKKKQILHGDPLPLTRKSYLAWIGFSAEGTPCYVDSEGIVRMLNRGLGNTWTPICNTREHCKGKSDHYWVVGIHENPQQLRCIPCKGSRFPPTLPRPAVAILSFKLPYCQIATEKGQMEEQFWRSVIFHNHLDYLAKNGYEYEESTKNQATKEQQELLMKMLALSCKLEREFRCVELADLMTQNAVNLAIKYASRSRKLILAQKLSELAVEKAAELTAT", "notes": "source: E. coli Rosetta2(DE3), purified (Ni-NTA, Q-Sepharose, TEV cleavage, Superdex 200)"}, "B2": {"name": "Full-length His10-myc-tagged AND-1 (1–1129) (natural protein, human, UniProt O75717 1-1129, looked up)", "chain": "MPATRKPMRYGHTEGHTEVCFDDSGSFIVTCGSDGDVRIWEDLDDDDPKFINVGEKAYSCALKSGKLVTAVSNNTIQVHTFPEGVPDGILTRFTTNANHVVFNGDGTKIAAGSSDFLVKIVDVMDSSQQKTFRGHDAPVLSLSFDPKDIFLASASCDGSVRVWQISDQTCAISWPLLQKCNDVINAKSICRLAWQPKSGKLLAIPVEKSVKLYRRESWSHQFDLSDNFISQTLNIVTWSPCGQYLAAGSINGLIIVWNVETKDCMERVKHEKGYAICGLAWHPTCGRISYTDAEGNLGLLENVCDPSGKTSSSKVSSRVEKDYNDLFDGDDMSNAGDFLNDNAVEIPSFSKGIINDDEDDEDLMMASGRPRQRSHILEDDENSVDISMLKTGSSLLKEEEEDGQEGSIHNLPLVTSQRPFYDGPMPTPRQKPFQSGSTPLHLTHRFMVWNSIGIIRCYNDEQDNAIDVEFHDTSIHHATHLSNTLNYTIADLSHEAILLACESTDELASKLHCLHFSSWDSSKEWIIDLPQNEDIEAICLGQGWAAAATSALLLRLFTIGGVQKEVFSLAGPVVSMAGHGEQLFIVYHRGTGFDGDQCLGVQLLELGKKKKQILHGDPLPLTRKSYLAWIGFSAEGTPCYVDSEGIVRMLNRGLGNTWTPICNTREHCKGKSDHYWVVGIHENPQQLRCIPCKGSRFPPTLPRPAVAILSFKLPYCQIATEKGQMEEQFWRSVIFHNHLDYLAKNGYEYEESTKNQATKEQQELLMKMLALSCKLEREFRCVELADLMTQNAVNLAIKYASRSRKLILAQKLSELAVEKAAELTATQVEEEEEEEDFRKKLNAGYSNTATEWSQPRFRNQVEEDAEDSGEADDEEKPEIHKPGQNSFSKSTNSSDVSAKSGAVTFSSQGRVNPFKVSASSKEPAMSMNSARSTNILDNMGKSSKKSTALSRTTNNEKSPIIKPLIPKPKPKQASAASYFQKRNSQTNKTEEVKEENLKNVLSETPAICPPQNTENQRPKTGFQMWLEENRSNILSDNPDFSDEADIIKEGMIRFRVLSTEERKVWANKAKGETASEGTEAKKRKRVVDESDETENQEEKAKENLNLSKKQKPLDFSTNQKLSAFAFKQE", "notes": "the oligomeric state was measured only on the SepB constructs; also called His-myc-AND-1; human CTF4-orthologue AND-1; source: Sf9 insect cells (baculovirus, MultiBac), purified (Ni-NTA, Q-Sepharose)"}}, "key": {"GST-BNTD (1–78) A47E": {"molecular_target": "T1, GST-BNTD (1–78) A47E (human, UniProt Q14181 1-78, A47E)", "T1 construct": "human DNA polymerase α B subunit, residues 1-78; also called A47E mutant GST-BNTD; source: E. coli Rosetta2(DE3), purified (Ni-NTA agarose)", "T1 sequence (looked up)": "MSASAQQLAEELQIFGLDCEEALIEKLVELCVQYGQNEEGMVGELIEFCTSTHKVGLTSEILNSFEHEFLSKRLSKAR", "experiment": "pull-down; MBP-AND-1 constructs bound to 100 µl amylose resin, 25 nmol GST-B added as prey; PD buffer, 2.5 mg/ml BSA, 4°C; eluted with 20 mM maltose; Coomassie", "settings": "both partners purified"}, "[1]": {"molecular_target": "T2, GST-BNTD (B subunit amino acids 1–78) (human, UniProt Q14181 1-78)", "T2 construct": "human DNA polymerase α B subunit, residues 1-78 (four-helix bundle N-terminal domain); also called GST-B(1–78); B N-terminal domain; source: E. coli Rosetta2(DE3), purified (Ni-NTA agarose)", "T2 sequence (looked up)": "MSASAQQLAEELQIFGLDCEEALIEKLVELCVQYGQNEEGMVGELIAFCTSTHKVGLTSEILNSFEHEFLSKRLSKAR", "experiment": "pull-down; MBP-AND-1 constructs bound to 100 µl amylose resin, 25 nmol GST-B added as prey; PD buffer, 2.5 mg/ml BSA, 4°C; eluted with 20 mM maltose; Coomassie", "settings": "both partners purified"}, "[2]": {"molecular_target": "the molecule itself", "experiment": "SEC-MALS; 100 µl AND-1 336–826 at 2–4 mg/ml on Superdex S200 10/300 GL; 25 mM HEPES pH 7.0, 200 mM NaCl"}, "[3]": {"molecular_target": "B2", "experiment": "pull-down; competition: Pol α/primase bound to 100 µl Strep-Tactin Superflow resin, 1 nmol AND-1 added together with 100 nmol B (1–78) or Pol α CIP peptide 156–170; eluted with 10 mM desthiobiotin; Coomassie and anti-His western blot", "settings": "both partners purified"}, "[4]": {"molecular_target": "B2", "experiment": "pull-down; GST-B fusion proteins (in figure 6a also GST-Pol α CIP, equimolar) bound to 100 µl glutathione agarose, 2.2 nmol AND-1 (1–1129, 316–1129 or 336–826) added as prey; PD buffer, 2.5 mg/ml BSA, 4°C; Coomassie, anti-His western blot in figure 6a", "settings": "both partners purified"}, "[5]": {"molecular_target": "T3, Pol α/primase, full-length heterotetrameric complex (Polα-B-PriS-PriL) (human, UniProt P09884 1-1462; Q14181 1-598; P49642 1-420; P49643 1-509)", "T3 construct": "human DNA polymerase α catalytic subunit, residues 1-1462; human DNA polymerase α B subunit, residues 1-598; human primase small subunit PriS, residues 1-420; human primase large subunit PriL, residues 1-509; The wording 'Double StrepII-tagged human DNA polymerase α (1–1462) and its B subunit (1–598)' leaves open whether the B subunit is tagged too; the tag is written on Pol α only; also called …", "experiment": "pull-down; StrepII-tagged Pol α/primase bound to 100 µl Strep-Tactin Superflow resin, about 2.4 nmol AND-1 added as prey; PD buffer (PBS, 5% glycerol, 0.5 mM TCEP, 0.2% Igepal), 2.5 mg/ml BSA, 4°C; eluted with 10 mM desthiobiotin; Coomassie and anti-His western blot", "settings": "both partners purified"}, "[6]": {"molecular_target": "the molecule itself", "experiment": "crystal structure; AND-1 329–826 crystallised at 9 mg/ml; space group F432, one protomer per asymmetric unit, trimer by crystallographic symmetry; 2.5 Å"}, "AND-1 SepB (336–826)": {"molecular_target": "B1", "experiment": "pull-down; GST-Pol α fusion proteins bound to 100 µl glutathione agarose, 20 nmol AND-1 SepB added as prey; PD buffer, 2.5 mg/ml BSA, 4°C; eluted with 20 mM reduced glutathione; Coomassie", "settings": "both partners purified"}}, "data": [{"binder": "MBP-tagged AND-1 HMG box (1017–1076), wild type (domain or fragment, human, UniProt O75717 1017-1076, looked up, human AND-1 HMG box, residues 1017-1076; also called AND-1(1017–1076); source: E. coli Rosetta2(DE3), purified (Ni-NTA, Superdex 200)) RPKTGFQMWLEENRSNILSDNPDFSDEADIIKEGMIRFRVLSTEERKVWANKAKGETASE", "values": [{"measurement": "binding result", "setting": "GST-BNTD (1–78) A47E", "result": "binds"}, {"measurement": "binding result", "setting": "[1]", "result": "binds"}]}, {"binder": "B1", "values": [{"measurement": "stoichiometry N", "setting": "[2]", "result": 3}]}, {"binder": "B (1–78), free BNTD used as competitor (domain or fragment, human, UniProt Q14181 1-78, looked up, human DNA polymerase α B subunit, residues 1-78; it names the protein 'B (1–78)' and 'free BNTD'; also called purified BNTD; source: E. coli Rosetta2(DE3), purified) MSASAQQLAEELQIFGLDCEEALIEKLVELCVQYGQNEEGMVGELIAFCTSTHKVGLTSEILNSFEHEFLSKRLSKAR", "values": [{"measurement": "binding result", "setting": "[3]", "result": "binds"}]}, {"binder": "GST-B subunit (1–104) (domain or fragment, human, UniProt Q14181 1-104, looked up, human DNA polymerase α B subunit, residues 1-104; also called GST-B fusion protein 1–104; source: E. coli Rosetta2(DE3), purified (Ni-NTA agarose)) MSASAQQLAEELQIFGLDCEEALIEKLVELCVQYGQNEEGMVGELIAFCTSTHKVGLTSEILNSFEHEFLSKRLSKARHSTCKDSGHAGARDIVSIQELIEVEE", "values": [{"measurement": "binding result", "setting": "[4]", "result": "binds"}]}, {"binder": "GST-B subunit (1–156) (domain or fragment, human, UniProt Q14181 1-156, looked up, human DNA polymerase α B subunit, residues 1-156; also called GST-B fusion protein 1–156; source: E. coli Rosetta2(DE3), purified (Ni-NTA agarose)) MSASAQQLAEELQIFGLDCEEALIEKLVELCVQYGQNEEGMVGELIAFCTSTHKVGLTSEILNSFEHEFLSKRLSKARHSTCKDSGHAGARDIVSIQELIEVEEEEEILLNSYTTPSKGSQKRAISTPETPLTKRSVSTRSPHQLLSPSSFSPSAT", "values": [{"measurement": "binding result", "setting": "[4]", "result": "binds"}]}, {"binder": "B2", "values": [{"measurement": "binding result", "setting": "[5]", "result": "binds"}]}, {"binder": "AND-1 (329–826), SepB domain (domain or fragment, human, UniProt O75717 329-826, looked up, human AND-1, residues 329-826 (SepB domain); residues 329-420 and 824-826 not in the final crystallographic model; Trimer arises from crystallographic symmetry (one protomer per asymmetric unit); also called AND-1 SepB) GDDMSNAGDFLNDNAVEIPSFSKGIINDDEDDEDLMMASGRPRQRSHILEDDENSVDISMLKTGSSLLKEEEEDGQEGSIHNLPLVTSQRPFYDGPMPTPRQKPFQSGSTPLHLTHRFMVWNSIGIIRCYNDEQDNAIDVEFHDTSIHHATHLSNTLNYTIADLSHEAILLACESTDELASKLHCLHFSSWDSSKEWIIDLPQNEDIEAICLGQGWAAAATSALLLRLFTIGGVQKEVFSLAGPVVSMAGHGEQLFIVYHRGTGFDGDQCLGVQLLELGKKKKQILHGDPLPLTRKSYLAWIGFSAEGTPCYVDSEGIVRMLNRGLGNTWTPICNTREHCKGKSDHYWVVGIHENPQQLRCIPCKGSRFPPTLPRPAVAILSFKLPYCQIATEKGQMEEQFWRSVIFHNHLDYLAKNGYEYEESTKNQATKEQQELLMKMLALSCKLEREFRCVELADLMTQNAVNLAIKYASRSRKLILAQKLSELAVEKAAELTAT", "values": [{"measurement": "binding result", "setting": "[6]", "result": "binds"}]}, {"binder": "DKAVDLSKDGLLGDILQDLNTETP (domain or fragment, human, also called GST-Pol α CIP; GST-tagged Pol α CIP; source: E. coli Rosetta2(DE3), purified (Ni-NTA agarose); not shown: His tag (from the purification on Ni-NTA))", "note": "[GST-Pol α (148–171), wild type]", "values": [{"measurement": "binding result", "setting": "AND-1 SepB (336–826)", "result": "binds"}]}]}
